± gives the standard deviation.
Assay: protein stability index of a GFP-peptide fusion (GPS, HEK-293T) (PSI 1-6); higher = more stable
Details: c terminus: a fixed tail appended
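Also: 24-mer peptide tiles fused after GFP, lentivirally expressed, FACS-sorted into six equal bins by GFP/DsRed ratio, decoded by Illumina sequencing, PSI is the read-weighted mean bin number.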

## NSIAHYRQVNIRTANCTTANQNCV [KCNA1]
treatment: DMSO
  protein stability index: 3.17 ± 0.17
treatment: MLN4924 1 uM, 8 h
  protein stability index: 3.19 ± 0.27

## DRGIKGDITPLMAAANGGHVKIVK [ANKRD17]
treatment: DMSO
  protein stability index: 4.42 ± 0.11
treatment: MLN4924 1 uM, 8 h
  protein stability index: 4.38 ± 0.085

## TPSPADAKAPPTACYAGAAPAPSQ [CEBPB]
treatment: DMSO
  protein stability index: 4.75 ± 0.38
treatment: MLN4924 1 uM, 8 h
  protein stability index: 4.75 ± 0.27

## PRKVSTCTDHELENHSMYCVQCKM [TRIM9]
treatment: DMSO
  protein stability index: 4.53 ± 0.27
treatment: MLN4924 1 uM, 8 h
  protein stability index: 4.74 ± 0.33

## NNPFAKGFRGSDDMELHRMSRMQS [TBX5]
treatment: DMSO
  protein stability index: 4.15 ± 0.33
treatment: MLN4924 1 uM, 8 h
  protein stability index: 4.06 ± 0.22

## DSIKDEDRTSLATFHEGKHNISHM [WDFY1]
treatment: DMSO
  protein stability index: 4.66 ± 0.23
treatment: MLN4924 1 uM, 8 h
  protein stability index: 4.59 ± 0.28

## EYQCQNLYQLEGNNQITCRNGQWS [CFHR2]
treatment: DMSO
  protein stability index: 3.09 ± 0.14
treatment: MLN4924 1 uM, 8 h
  protein stability index: 3.03 ± 0.21

## MLATRNFSGGKSGGNKKSDGVKES [CAMK2A]
treatment: DMSO
  protein stability index: 4.51 ± 0.7
treatment: MLN4924 1 uM, 8 h
  protein stability index: 4.54 ± 0.12

## KAVVFFVFYLWSAIEIFRYSFYML [HACD3]
treatment: DMSO
  protein stability index: 3.46 ± 0.28
treatment: MLN4924 1 uM, 8 h
  protein stability index: 3.08 ± 0.32

## FDNPQVRFFLGDLCSRQDLYPALK [NSDHL]
treatment: DMSO
  protein stability index: 2.35 ± 0.29
treatment: MLN4924 1 uM, 8 h
  protein stability index: 2.25 ± 0.26

## ICDRTATPLDAFRMTSAAHYYPKL [GFOD1]
treatment: DMSO
  protein stability index: 2.85 ± 0.21
treatment: MLN4924 1 uM, 8 h
  protein stability index: 2.82 ± 0.16

## APSPQEALVRLRETEEMLGKKQEY [CHMP4C]
treatment: DMSO
  protein stability index: 5.26 ± 0.25
treatment: MLN4924 1 uM, 8 h
  protein stability index: 5.12 ± 0.096

## HKVLELTAENERLQKKVEQLSREL [CEBPB]
treatment: DMSO
  protein stability index: 5.76 ± 0.23
treatment: MLN4924 1 uM, 8 h
  protein stability index: 5.811 ± 0.011

## DLEAKEVTPRTALLTWTEPPVRPA [TNXB]
treatment: DMSO
  protein stability index: 4.61 ± 0.14
treatment: MLN4924 1 uM, 8 h
  protein stability index: 4.53 ± 0.23

## TCCESTQRSVSDVASGSTPAPALC [IRX6]
treatment: DMSO
  protein stability index: 4.48 ± 0.067
treatment: MLN4924 1 uM, 8 h
  protein stability index: 4.51 ± 0.11

## KVKVPQKTAGKENHFDMHRVGKWH [ZNF75A]
treatment: DMSO
  protein stability index: 2.87 ± 0.45
treatment: MLN4924 1 uM, 8 h
  protein stability index: 3.43 ± 0.51

## HFDLRDDDDAEEEGPKRELGVRRP [TCF25]
treatment: DMSO
  protein stability index: 5.32 ± 0.26
treatment: MLN4924 1 uM, 8 h
  protein stability index: 5.24 ± 0.3

## DNPLDRPLVGQDEFFLEQTKKKGV [NOP53]
treatment: DMSO
  protein stability index: 5.25 ± 0.3
treatment: MLN4924 1 uM, 8 h
  protein stability index: 5.37 ± 0.22

## LGDCMRTLGYMPTEMELLEVSQHI [CABP4]
treatment: DMSO
  protein stability index: 2.46 ± 0.31
treatment: MLN4924 1 uM, 8 h
  protein stability index: 2.57 ± 0.23

## GCKGFFRRSVRKNHMYSCRFSRQC [HNF4A]
treatment: DMSO
  protein stability index: 2.15 ± 0.18
treatment: MLN4924 1 uM, 8 h
  protein stability index: 2.27 ± 0.36

## YLAYINAKSRAEAALEEESRQRQS [SMARCE1]
treatment: DMSO
  protein stability index: 3.93 ± 0.33
treatment: MLN4924 1 uM, 8 h
  protein stability index: 3.75 ± 0.33

## DTMRQINKKGFWSYGPVILVVLVV [TOR1AIP2]
treatment: DMSO
  protein stability index: 2.49 ± 0.48
treatment: MLN4924 1 uM, 8 h
  protein stability index: 2.42 ± 0.37

## INVYGNTALHIACYNGQDAVVNEL [ANKRD44]
treatment: DMSO
  protein stability index: 2.06 ± 0.16
treatment: MLN4924 1 uM, 8 h
  protein stability index: 2.23 ± 0.16

## LKKYLEPRCPRMVLSLKEGAREED [FBXO3]
treatment: DMSO
  protein stability index: 4.56 ± 0.34
treatment: MLN4924 1 uM, 8 h
  protein stability index: 4.19 ± 0.41

## EFKAAFDMFDADGGGDISVKELGT [TNNC2]
treatment: DMSO
  protein stability index: 4.16 ± 0.13
treatment: MLN4924 1 uM, 8 h
  protein stability index: 4.63 ± 0.11

## SKIFTTLDPASLAWLTEEEPEPAE [DDIT3]
treatment: DMSO
  protein stability index: 5.14 ± 0.54
treatment: MLN4924 1 uM, 8 h
  protein stability index: 5.11 ± 0.27

## KFGRTCLHAAAAGGNVECIKLLQS [ANKRD44]
treatment: DMSO
  protein stability index: 2.44 ± 0.45
treatment: MLN4924 1 uM, 8 h
  protein stability index: 2.55 ± 0.12

## FDSDWYTSRNLIGGADIIVIKYNV [RHOBTB3]
treatment: DMSO
  protein stability index: 2.73 ± 0.52
treatment: MLN4924 1 uM, 8 h
  protein stability index: 3.12 ± 0.4

## SLEHTLRVAIAHYQDDPDLRFLLD [TSPAN10]
treatment: DMSO
  protein stability index: 2.69 ± 0.16
treatment: MLN4924 1 uM, 8 h
  protein stability index: 2.98 ± 0.14

## NQEITKAFHVRRTNRVKECLAKGT [RHOBTB2]
treatment: DMSO
  protein stability index: 3.41 ± 0.51
treatment: MLN4924 1 uM, 8 h
  protein stability index: 3.64 ± 0.7

## RDNAELENLIRERSQQQEPLLCPS [KRT33B]
treatment: DMSO
  protein stability index: 4.98 ± 0.23
treatment: MLN4924 1 uM, 8 h
  protein stability index: 4.87 ± 0.21

## MPEEVHHGEEEVETFAFQAEIAQL [HSP90AB1]
treatment: DMSO
  protein stability index: 5.24 ± 0.28
treatment: MLN4924 1 uM, 8 h
  protein stability index: 5.16 ± 0.14

## AISSVERYDPQTNEWRMVASMSKR [KLHL20]
treatment: DMSO
  protein stability index: 3.71 ± 0.22
treatment: MLN4924 1 uM, 8 h
  protein stability index: 3.99 ± 0.21

## PLFYPGIRAGRKNAAPLTIRPPTD [TRIM39]
treatment: DMSO
  protein stability index: 3.56 ± 0.25
treatment: MLN4924 1 uM, 8 h
  protein stability index: 3.58 ± 0.15

## GDELYEQSDEEQDSVKVALLETNP [CLPTM1]
treatment: DMSO
  protein stability index: 5.37 ± 0.19
treatment: MLN4924 1 uM, 8 h
  protein stability index: 5.44 ± 0.17

## AIQGISEKEKAEIEAKEACDWLRA [DLC1]
treatment: DMSO
  protein stability index: 4.69 ± 0.42
treatment: MLN4924 1 uM, 8 h
  protein stability index: 4.72 ± 0.39

## LRGLCANTVLRFLDLKGNNLRAAG [LRRC45]
treatment: DMSO
  protein stability index: 2.3 ± 0.24
treatment: MLN4924 1 uM, 8 h
  protein stability index: 2.24 ± 0.16

## LNVTNYCHLAHELRLSCMERKKVQ [DCAF4]
treatment: DMSO
  protein stability index: 2.61 ± 0.19
treatment: MLN4924 1 uM, 8 h
  protein stability index: 2.36 ± 0.21

## GARDGIRYLEAEFKKGNRYIRCQK [SMG5]
treatment: DMSO
  protein stability index: 3.14 ± 0.3
treatment: MLN4924 1 uM, 8 h
  protein stability index: 3.57 ± 0.32

## HQRIHTGEKPFECNECGKAFRWGA [ZNF232]
treatment: DMSO
  protein stability index: 2.64 ± 0.5
treatment: MLN4924 1 uM, 8 h
  protein stability index: 2.61 ± 0.67

## YLHPNSYSCACLASGSVLRLVDAV [HDAC6]
treatment: DMSO
  protein stability index: 2.82 ± 0.36
treatment: MLN4924 1 uM, 8 h
  protein stability index: 2.32 ± 0.066

## RYAEHVAATQALPQDSGTAAWKGR [C22orf31]
treatment: DMSO
  protein stability index: 4.1 ± 0.17
treatment: MLN4924 1 uM, 8 h
  protein stability index: 4.14 ± 0.35

## LASLSFIDTVYSTAFAPKMIVDLL [OR4A15]
treatment: DMSO
  protein stability index: 2.66 ± 0.32
treatment: MLN4924 1 uM, 8 h
  protein stability index: 3.05 ± 0.34

## SLVTVGKHLTARVLCLIVLPLALY [POMT2]
treatment: DMSO
  protein stability index: 2.63 ± 0.58
treatment: MLN4924 1 uM, 8 h
  protein stability index: 2.58 ± 0.33

## RRNLEEDDYLHKDTGETSMLKRPV [STEAP1]
treatment: DMSO
  protein stability index: 4.69 ± 0.13
treatment: MLN4924 1 uM, 8 h
  protein stability index: 4.76 ± 0.19
